# Assay results reported in the nanobody polyreactivity screen of Harvey et al. (2022).
# Test: yeast display, Sf9 membrane polyspecificity reagent, FACS + sequencing; frameworks hold sequencing errors
# How it was run: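 Galactose-induced (36–48 hours) yeast carrying a synthetic nanobody display library were exposed to 10% biotinylated, detergent-solubilized Sf9 membrane reagent at 4 °C for 1 hour. FACS followed streptavidin microbead enrichment, using low and high (top ~1%) gates for expression (anti-HA) and reagent binding (streptavidin). Colony PCR, MiSeq 2 × 250 sequencing and CDR-length filtering followed. Labels for polyreactivity reflect the gate of origin.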
row,Sequence,polyreactivity (PSR sort gate)
1,QVQLVESGGGLVQAGGSLRLSCAASGRIFDTNVMGWYRQAPGKERELVAALSYSGGSTYYADSVKGRFTISRDNAKNTVYLQMNSLKPEDTAVYYCAAQYWQGDYDYRGQGTQVTVSS,high polyreactivity
2,QVQLVESGGGLVQAGGSLRLSCAASGRIFDVYAKGWYRQAPGKERELFAAISKSDGRTYYADSVKGRFTISRDNAKNTVYLQMNSLKPEDTAVYYCNVRAYGARAGTKMYYWGQGTQVNVSS,low polyreactivity
3,QVQLVESGGGLVQAGGSLRLSCAASGRIFDVYAMGWYRQAPGKERELVATITGSGGGTYYADSVKGRFTISRDNAKNTVYLQMNSLKPEDSEVYYCASYYYPNYAYYVSNVVYDYWVQGTQVTVSS,low polyreactivity
4,QVQLVESGGGLVQAGGSLRLSCAASGRIFDWNAMGWYRQAPGKERELVAAISYSDGSTYYADSVKGRFTISRDNAKNTVYLQMNSLKREDTAVYYCDADFYDRTYITWYEYWGQGTQVTVSS,high polyreactivity
5,QVQLVESGGGLVQAGGSLRLSCAASGRIFDWNTMGRYRQAPGKERELVAAISYEGSTYYADSVKGRFTISRDNAKNTVYLQMNSLKPEDTAVFYCNAYPLTQYFAQGYDYWGQGTQVTVSS,low polyreactivity
6,QVQLVESGGGLVQAGGSLRLSCAASGRIFDYNAMGWYRQVPGKERELVAAITKDDGSTYYADSVKGRFTISRDNAKNTVYLQMTSLKPEDTAVYYCAADFYWTYVDIWYDYWGHGTQVTVSS,low polyreactivity
7,QVQLVESGGGLVQAGGSLRLSCAASGRIFDYYAMGWYRPAPGKERELVAAITSGGTTTYYADSVKGRFTISRDNAKNTVYVQMNSLKPEDTAVYYCAKYPYHIYHTDGDYWGQGTQVTVSS,low polyreactivity
8,QVQLVESGGGLVQAGGSLRLSCAASGRIFDYYAMGWYRQAPGKERELVAAIDWRGDRTYYADSVKGRFTISRDNAKNTVYLQMNSLKPEDTAVYYCNVLDTRQVGGYRFDYWGQGTQVTVSS,low polyreactivity
9,QVQLVESGGGLVQAGGSLRLSCAASGRIFDYYAMGWYRQAPGKERELVAAISSSVGNTYYADSVKGRFTISRDNAKNTVYLQMNSLKPEDTAVYYCADYSYVRSSYEVEYDYWGQGTQVTVSS,low polyreactivity
10,QVQLVESGGGLVQAGGSLRLSCAASGRIFDYYAMGWYRQAPGKERELVASISRSGGSTYYADSVKGRFTISRDNAKNTVYLQMNSLKPEDTAVYYCAAVRYITKEFYWGQGTQVTVSS,high polyreactivity
11,QVQLVESGGGLVQAGGSLRLSCAASGRIFDYYAMGWYRQAPGKERELVAVINRDGSTYYADSVKGRFTISRDNAKNTVYLQMNSLKPEDTAVYYCARDSAWAARGPFTDGAYDSWGQGTQVTVSS,low polyreactivity
12,QVQLVESGGGLVQAGGSLRLSCAASGRIFDYYAMGWYRQAPGKERELVAVISRGGRTKYADSVKGRFTISRDNAKNTVYLQMNSLKPEDTAVFYCAAYPSYYGDSGLRYDYWGQGTQVTVSS,high polyreactivity
13,QVQLVESGGGLVQAGGSLRLSCAASGRIFDYYGMGWYRHAPGKERELVAAITSSGSRTYYADSVKGRFTISRDNAKNTVYLQMNSLKPEDTAVYYCARGGGRRKGLVDYWGQGTQVTVSS,low polyreactivity
14,QVQLVESGGGLVQAGGSLRLSCAASGRIFDYYTMGWYRQAPGKESELVAAITKSGGSTYYADSVKGRFTISRDNAKNTVFLLMNILKPEDTAVYYCAAVTYDYYWFGDIEDDFWGQGTQVTVSS,low polyreactivity
15,QVQLVESGGGLVQAGGSLRLSCAASGRIFEHYAMGWYRQAPGKERELVATISSGGSTYYADSVKGRFTISRDNAKNTVYLQMNSLKPEDTAVYYCAAERFWPYKSYYWGQGTQVTVSS,low polyreactivity
16,QVQLVESGGGLVQAGGSLRLSCAASGRIFELNARGWYSQAPGKERELVAVISSGGNTHYADSVKGRFTISRDNAKNTVYLQMNSLNPEDTAVYYCAAVASKHWGRDYWGQGTQVTVSS,low polyreactivity
17,QVQLVESGGGLVQAGGSLRLSCAASGRIFEPYAMGWYRQAPGNERELVAAINSGGSTNYADSVKGRFTISRDNAKNTVYLQMNSLKPEDTAVYYCAASVYGQHAGPGRWYTFYYWGQGTQVTVSS,low polyreactivity
18,QVQLVESGGGLVQAGGSLRLSCAASGRIFESKAMGWYRQAPGKERELVAAISVNGASTSYADSVKGRFTISRDNAKNTVYLQMNSLKPEDTAVYYCAARRGKGYYYWGQGTQVTVSS,high polyreactivity
19,QVQLVESGGGLVQAGGSLRLSCAASGRIFEVNVMGWYRQAPGKERELVAAITTGGGSTYYADSVKGRFTISRDNAKNTVYLQMNSLKPEDTAVYYCAAEPILIDEYWGQGTQVTVSS,low polyreactivity
20,QVQLVESGGGLVQAGGSLRLSCAASGRIFEVYDMGWYRKAPGKERELVAAISESDDNTYYADSVKGRFTISRDNAKNTVYLQMNSLKPEDTAVYYCNADVPGDTGWWGFDYWGQGTQVTVSS,low polyreactivity
21,QVQLVESGGGLVQAGGSLRLSCAASGRIFFANAMGWYRQAPGKERELVATITSGESTNYADSVKGRFTISRDNAKNTVYFEMNSLKPEDTAVYYCAADYYWYSPGAYSYAGYDYWGQGTQVTVSS,low polyreactivity

row,Sequence,polyreactivity (PSR sort gate)
1,QVQLVESGGGLVQAGGSLRLSCAASGRIFFDYAMGWYRQAPGKERELGADISYNGGSTNYADSVKGRFTISRDNAKNTVYLQMISLKPEDTAVYYCNRALVPVYDLDYYWGQGTQVTVSS,low polyreactivity
2,QVQLVESGGGLVQAGGSLRLSCAASGRIFFDYAMGWYRQAPGKERELVAAISSGGSRTYYADSVKGRFTISRDNAKNTVYLQMNSLKPEDTAVYYCAADSTVYQDEYWGQGTQVTVSS,high polyreactivity
3,QVQLVESGGGLVQAGGSLRLSCAASGRIFFDYDMGWYRPAPGKERELVAAISSSGDSTYYADSVKGRFTISRDNAKNTVYLQMNSLKPEDTAVYYCNAKSVPVNYVAIKYDYWGQGTQVTVSS,high polyreactivity
4,QVQLVESGGGLVQAGGSLRLSCAASGRIFFKYAMGWYRQAPGKERELVAAISKTGGRTYYADSVKGRFTISRDNAKNTVYLQMNSLKPEDTAVYYCRGYTSFGYDYWGQGTQVTVSS,high polyreactivity
5,QVQLVESGGGLVQAGGSLRLSCAASGRIFFLYAMAWYRQAPGKEREFVAAISSSGGSTYYADSVKGRFTISRDNAKNTVYLKMNSLKPEDTAVYYCNADATWSGYIVSYDYWGQGTQVTVSS,low polyreactivity
6,QVQLVESGGGLVQAGGSLRLSCAASGRIFFPYAMGWYRQAPGKERELVAAISTSSGRTYYADSVKGRFTISRDNAKNTVYLQMNSLKPEDTAVYYCNTRPGSYSYSYRYYYWGQGTQVTVSS,high polyreactivity
7,QVQLVESGGGLVQAGGSLRLSCAASGRIFFPYAMGWYRQAPGKERELVAVITSGGTTYYADSVKGRFRISRDNAKNTVYLQMNSLKTEDTAVYYCAVHWYSYRYAATMDYWGQGTQVTVSS,high polyreactivity
8,QVQLVESGGGLVQAGGSLRLSCAASGRIFFRNAMGWYRQAPGKERELVAAITWNGGSTYYADSVKGRFTISRDIAKNTVYLQMNSLKPEDTAVYYCNKAGVSYRSQYYYWGQGTQVTVSS,high polyreactivity
9,QVQLVESGGGLVQAGGSLRLSCAASGRIFFRNAMGWYRQAPGKERELVAAITYSGGSTYYADSVKGRFTISRDNAKNTVYFQMNSLKPEDTAVYYCYADYYPYGEYDYWGQGTQVTVSS,high polyreactivity
10,QVQLVESGGGLVQAGGSLRLSCAASGRIFFRYAMGWYRQAPGKEREFVAAISGTGGSTYYADSVKGRFTISRDNAKNTVYLQMNSLKPEDTAVYYCAASVVSRPTYYAYYYWGQGTQVTVSS,high polyreactivity
11,QVQLVESGGGLVQAGGSLRLSCAASGRIFFRYTMGWYRQAPGKESELVAAITKRGGTYYADSVKGRFTISRDNAKNTVYLQMNSLKPEDTAVYYCNAVRYGINSYTYRRGYWGQGTQVTVSS,high polyreactivity
12,QVQLVESGGGLVQAGGSLRLSCAASGRIFFSYMGWYRQAPGKERELVAAISSGGSTYYADSVKGRFTISRDNAKNTVYLQMNSLKPEDTAVYYCAARYRLDGTHMTGYAYYSWGQGTQVTVSS,high polyreactivity
13,QVQLVESGGGLVQAGGSLRLSCAASGRIFFWYAMGWYRQAPGKERELVAGITSGGSTNYADSVKGRFTISRDNAKNTVYLQMNSLKPEDTAVYYCNTVDSIPIGSGLYYYWGQGTQVTVSS,low polyreactivity
14,QVQLVESGGGLVQAGGSLRLSCAASGRIFFYYAMGWYRQAPGKERELVATISYSGGGTYYADSVKGRFTISRDNAKNTVYLQMNSLKPEDTAAYYCNARWGTPYYIQDFDYWGQGTQVTVSS,low polyreactivity
15,QVQLVESGGGLVQAGGSLRLSCAASGRIFGAYAMGWYRQAPGKERELVAAITSRGGNTYYADSVKGRFTISRDNAKNTVDLQMNSLKPEDTAVYYCAARHDKRRQYYFGQSAFDYWGQGTQVTVSS,low polyreactivity
16,QVQLVESGGGLVQAGGSLRLSCAASGRIFGAYAMGWYRQAPGKERELVAASSSGGSTYYADSVKGRFTISRDNAKNTVSLQMKSLNPEDTAVYYCAASSGNGYGYWGQGTQVSVSS,high polyreactivity
17,QVQLVESGGGLVQAGGSLRLSCAASGRIFGAYAMGWYRQAPGKERELVATITKRGGSTFYADSVKGRFTISRDNAKNTVYLQMNSLKPEDTAVYYCAVSSFYRGRYDYWGQGTQVTVSS,high polyreactivity
18,QVQLVESGGGLVQAGGSLRLSCAASGRIFGCYAMGWYRQAPGKERELVAAISSGGNTKYADSVKGRFTISRDNAKNTVYLQMNSLKPEDTAVYYCAAKFAQPDYRYDYWGQGTQVTVSS,high polyreactivity
19,QVQLVESGGGLVQAGGSLRLSCAASGRIFGDNGMGWYRQAPGKERELVTYADSVKGRFTISRDNAKNTVYLQLNSLQPEDTAVYYCYSPFGGKYDYWGQGTQVTVSS,low polyreactivity
20,QVQLVESGGGLVQAGGSLRLSCAASGRIFGDYAMGWYRQAPGKERELVADITWSGGSTYYADSVKGRFTISRDNAKNTVYLQMNSLKPEDTAVYYCNADVWFYYTFDYWGQGTQVTVSS,low polyreactivity
